Reference: paper PMC3320765 (Biochemistry, 2012)

Target: HIRA(1–405), untagged (HIRA WD repeats) (human, UniProt P54198 1-405)
Test: AUC

Sequence of HIRA(1–405), untagged (HIRA WD repeats) (P54198 1-405): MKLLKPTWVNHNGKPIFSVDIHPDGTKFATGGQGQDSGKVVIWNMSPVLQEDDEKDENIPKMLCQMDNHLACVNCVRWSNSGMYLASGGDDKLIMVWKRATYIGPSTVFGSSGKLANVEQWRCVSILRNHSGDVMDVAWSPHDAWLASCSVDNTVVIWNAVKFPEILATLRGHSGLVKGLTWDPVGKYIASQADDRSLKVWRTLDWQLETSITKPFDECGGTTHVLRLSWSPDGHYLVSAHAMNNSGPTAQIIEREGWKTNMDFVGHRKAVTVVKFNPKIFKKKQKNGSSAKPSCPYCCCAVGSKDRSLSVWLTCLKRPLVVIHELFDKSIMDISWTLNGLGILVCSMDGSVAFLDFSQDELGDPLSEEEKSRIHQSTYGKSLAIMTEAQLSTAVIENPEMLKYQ

B1: 6His-UBN1(41–175) (domain or fragment, human, UniProt Q9NPG3 41-175, looked up)
chain: AAAAVRITLTLFEPDHKRCPEFFYPELVKNIRGKVKGLQPGDKKKDLSDPFNDEEKERHKVEALARKFEEKYGGKKRRKDRIQDLIDMGYGYDESDSFIDNSEAYDELVPASLTTKYGGFYINSGTLQFRQASES
  Kd: 13.3 nM

B2: 6His-UBN1(41–119) (domain or fragment, human, UniProt Q9NPG3 41-119, looked up)
chain: AAAAVRITLTLFEPDHKRCPEFFYPELVKNIRGKVKGLQPGDKKKDLSDPFNDEEKERHKVEALARKFEEKYGGKKRRK
  Kd: 6.5 nM
